± gives the standard deviation of the averaged measurements.
Assay: total protein half-life in vivo (active degradation + dilution); higher = more stable protein
[1] = E. coli NCM3722 delta-clpP delta-lon delta-hslV, growth: N-lim chemostat, doubling time 6 h
[2] = E. coli NCM3722 delta-clpP, growth: N-lim chemostat, doubling time 6 h
[3] = E. coli NCM3722 delta-hslV, growth: N-lim chemostat, doubling time 6 h
[4] = E. coli NCM3722 delta-lon, growth: N-lim chemostat, doubling time 6 h
[5] = E. coli NCM3722 delta-smpB, growth: N-lim chemostat, doubling time 6 h
[6] = wild type E. coli NCM3722, growth: C-lim chemostat, doubling time 3 h
[7] = wild type E. coli NCM3722, growth: C-lim chemostat, doubling time 6 h
[8] = wild type E. coli NCM3722, growth: C-lim chemostat, doubling time 12 h
[9] = wild type E. coli NCM3722, growth: N-lim chemostat, doubling time 6 h
[10] = wild type E. coli NCM3722, growth: N-lim chemostat, doubling time 12 h
[11] = wild type E. coli NCM3722, growth: P-lim chemostat, doubling time 6 h
[12] = wild type E. coli NCM3722, growth: P-lim chemostat, doubling time 12 h

Row | Sequence | total protein half-life in vivo [1] | total protein half-life in vivo [2] | total protein half-life in vivo [3] | total protein half-life in vivo [4] | total protein half-life in vivo [5] | total protein half-life in vivo [6] | total protein half-life in vivo [7] | total protein half-life in vivo [8] | total protein half-life in vivo [9] | total protein half-life in vivo [10] | total protein half-life in vivo [11] | total protein half-life in vivo [12]
1 | MQSVDVAIVGGGMVGLAVACGLQGSGLRVAVLEQRVQEPLAANAPPQLRVSAINAASEKLLTRLGVWQDILSRRASCYHGMEVWDKDSFGHISFDDQSMGYSHLGHIVENSVIHYALWNKAHQSSDITLLAPAELQQVAWGENETFLTLKDGSMLTARLVIGADGANSWLRNKADIPLTFWDYQHHALVATIRTEEPHDAVARQVFHGEGILAFLPLSDPHLCSIVWSLSPEEAQRMQQASEDEFNRALNIAFDNRLGLCKVESARQVFPLTGRYARQFASHRLALVGDAAHTIHPLAGQGVNLGFMDAAELIAELKRLHRQGKDIGQYIYLRRYERSRKHSAALMLAGMQGFRDLFSGTNPAKKLLRDIGLKLADTLPGVKPQLIRQAMGLNDLPEWLR | 5.67 ± 0.7 h | 5.28 ± 0.23 h | 4.33 ± 0.36 h | 4.06 ± 0.068 h | 4.06 ± 0.21 h | 2.864 ± 0.025 h | 5.52 ± 0.85 h | 7.26 ± 0.26 h | 4.1 ± 0.084 h | 7.19 ± 0.06 h | 3.16 ± 0.12 h | 5.3 ± 0.84 h
2 | MQTEQQRAVTRLCIQCGLFLLQHGAESALVDELSSRLGRALGMDSVESSISSNAIVLTTIKDGQCLTSTRKNHDRGINMHVVTEVQHIVILAEHHLLDYKGVEKRFSQIQPLRYPRWLVALMVGLSCACFCKLNNGGWDGAVITFFASTTAMYIRQLLAQRHLHPQINFCLTAFAATTISGLLLQLPTFSNTPTIAMAASVLLLVPGFPLINAVADMFKGHINTGLARWAIASLLTLATCVGVVMALTIWGLRGWV [P0ADD5] | – | – | – | – | – | – | – | 15.1 h | – | – | 6.86 h | –
3 | MQTIIRVEKLAKTFNQHQALHAVDLNIHHGEMVALLGPSGSGKSTLLRHLSGLITGDKSVGSHIELLGRTVQREGRLARDIRKSRAHTGYIFQQFNLVNRLSVLENVLIGALGSTPFWRTCFSWFTGEQKQRALQALTRVGMVHFAHQRVSTLSGGQQQRVAIARALMQQAKVILADEPIASLDPESARIVMDTLRDINQNDGITVVVTLHQVDYALRYCERIVALRQGHVFYDGSSQQFDNERFDHLYRSINRVEENAKAA | – | – | – | – | – | – | – | – | – | – | 0.231 ± 0.32 h | 0.931 ± 0.95 h
4 | MQTKKNEIWVGIFLLAALLAALFVCLKAANVTSIRTEPTYTLYATFDNIGGLKARSPVSIGGVVVGRVADITLDPKTYLPRVTLEIEQRYNHIPDTSSLSIRTSGLLGEQYLALNVGFEDPELGTAILKDGDTIQDTKSAMVLEDLIGQFLYGSKGDDNKNSGDAPAAAPGNNETTEPVGTTK | 6.04 ± 0.2 h | 6.2952 ± 0.0017 h | 5.73 ± 1.1 h | 6.27 ± 0.51 h | 6.07 ± 0.14 h | – | 5.612 ± 0.038 h | 12.5 ± 1.4 h | 6.08 ± 0.09 h | 13.6 ± 1.8 h | 5.72 ± 0.45 h | 13.7 ± 0.79 h
5 | MQTPHILIVEDELVTRNTLKSIFEAEGYDVFEATDGAEMHQILSEYDINLVIMDINLPGKNGLLLARELREQANVALMFLTGRDNEVDKILGLEIGADDYITKPFNPRELTIRARNLLSRTMNLGTVSEERRSVESYKFNGWELDINSRSLIGPDGEQYKLPRSEFRAMLHFCENPGKIQSRAELLKKMTGRELKPHDRTVDVTIRRIRKHFESTPDTPEIIATIHGEGYRFCGDLED [P0A9Q1] | 5.53 ± 0.35 h | 5.61 ± 1 h | 4.95 ± 0.086 h | 5.76 ± 0.36 h | 4.87 ± 0.05 h | 2.73 ± 0.069 h | 5.78 ± 0.19 h | 9.44 ± 1.7 h | 4.76 ± 0.39 h | 8.14 ± 0.24 h | 5.18 ± 0.058 h | 10.3 ± 0.2 h
6 | MQTQKPTLELLTCEGAYRDNPTALFHQLCGDRPATLLLESADIDSKDDLKSLLLVDSALRITALGDTVTIQALSGNGEALLALLDNALPAGVESEQSPNCRVLRFPPVSPLLDEDARLCSLSVFDAFRLLQNLLNVPKEEREAMFFGGLFSYDLVAGFEDLPQLSAENNCPDFCFYLAETLMVIDHQKKSTRIQASLFAPNEEEKQRLTARLNELRQQLTEAAPPLPVVSVPHMRCECNQSDEEFGGVVRLLQKAIRAGEIFQVVPSRRFSLPCPSPLAAYYVLKKSNPSPYMFFMQDNDFTLFGASPESSLKYDATSRQIEIYPIAGTRPRGRRADGSLDRDLDSRIELEMRTDHKELSEHLMLVDLARNDLARICTPGSRYVADLTKVDRYSYVMHLVSRVVGELRHDLDALHAYRACMNMGTLSGAPKVRAMQLIAEAEGRRRGSYGGAVGYFTAHGDLDTCIVIRSALVENGIATVQAGAGVVLDSVPQSEADETRNKARAVLRAIATAHHAQETF | 4.74 ± 0.93 h | 3.4 ± 0.18 h | 3.1 ± 0.083 h | 3.6 ± 0.24 h | 3.3 ± 0.17 h | 2.93 ± 0.52 h | 5.7 ± 0.12 h | 9.57 ± 0.22 h | 3.25 ± 0.13 h | 5.08 ± 0.34 h | 6.71 ± 0.33 h | 10.7 ± 1.7 h
7 | MQTQLTEEMRQNARALEADSILRACVHCGFCTATCPTYQLLGDELDGPRGRIYLIKQVLEGNEVTLKTQEHLDRCLTCRNCETTCPSGVRYHNLLDIGRDIVEQKVKRPLPERILREGLRQVVPRPAVFRALTQVGLVLRPFLPEQVRAKLPAETVKAKPRPPLRHKRRVLMLEGCAQPTLSPNTNAATARVLDRLGISVMPANEAGCCGAVDYHLNAQEKGLARARNNIDAWWPAIEAGAEAILQTASGCGAFVKEYGQMLKNDALYADKARQVSELAVDLVELLREEPLEKLAIRGDKKLAFHCPCTLQHAQKLNGEVEKVLLRLGFTLTDVPDSHLCCGSAGTYALTHPDLARQLRDNKMNALESGKPEMIVTANIGCQTHLASAGRTSVRHWIEIVEQALEKE | – | – | 1.54 h | 2.63 ± 0.16 h | 1.29 ± 0.16 h | 1.33 ± 0.28 h | 2.42 ± 0.12 h | 4.17 ± 0.18 h | – | 2.2136 ± 0.00075 h | 2.14 h | 4.65 ± 0.33 h

Source: the supplement of paper PMC11246515
